Experimental findings from publication PMC7932925 are described below.

The target of experiment [1] is FLAG-tagged VEGF^121 (WT), a soluble splicing variant of VEGFA. Briefly: non-reducing SDS-PAGE and FLAG immunoblot; FLAG-VEGF^121 immunopurified with FLAG-M1 antibody from conditioned media of transfected WT HeLa (and WT MDAMB231^m) cells; reducing against non-reducing immunoblot; disulfide-bonded homodimer against monomer.
Experiment [2] has the same target. Nature of the experiment: non-reducing SDS-PAGE and FLAG immunoblot; FLAG-VEGF^121 immunopurified with FLAG-M1 antibody from conditioned media of transfected ERO1 KO HeLa (and ERO1 KO MDAMB231^m) cells; reducing against non-reducing immunoblot; disulfide-bonded homodimer against monomer.

In the case of “FLAG-tagged VEGF^121 (WT), a soluble splicing variant of VEGFA (ligand)”, in experiment [1], the stoichiometry N worked out at 2. Further, the monomer as percent of the total secreted VEGF^121 in experiment [2] came to 80%.
